Source: the nanobody polyreactivity screen of Harvey et al. (2022)

Test: yeast display, Sf9 membrane polyspecificity reagent, FACS + sequencing; frameworks hold sequencing errors
Procedure, shortened: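 Synthetic nanobody libraries on Saccharomyces cerevisiae BJ5465 were galactose-induced for 36–48 hours, stained 1 hour at 4 °C with 10% biotinylated, detergent-solubilized Sf9 membrane reagent and enriched on streptavidin microbeads. FACS then separated cells into low and high (top ~1%) gates by anti-HA (expression) and streptavidin (reagent binding) fluorescence. Genes were colony-PCR amplified, MiSeq 2 × 250 sequenced and CDR-length filtered. A clone's polyreactivity label is that of its gate of origin.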

| Sequence | polyreactivity (PSR sort gate) |
| --- | --- |
| QVQLVESGGGLVQAGGSLRLSCAASGSISYFNAMGWYRQAPGKERELVAAITSGGSTYYADSVKGRFTISLDNAKNTVYLQMNSLKPEDTAVYYCNAPLEWGVYAAQNWDDGYWGQGTQVTVSS | low polyreactivity |
| QVQLVESGGGLVQAGGSLRLSCAASGGSFLVNDMGWYRQAPGTERELVAAITSGGGTYYADSVKGRFTISRDNAKNTVYLQMNSLNPEDTAVYYCARDTYRPIVSNESYGYWGQGTQVTVSS | low polyreactivity |
| QVQLVESGGGLVQAGGSLRLSCAASGNIFRYYTMGWYRQAPGKERELVATISYADSVKGRFTISRDNAKNTVYLQMNSLKPEDTAVYYCKADFAPWDKQDYPYDYDYWGQGTQVTVSS | low polyreactivity |
| QVQLVESGGGLVQAGGSLRLSCAASGIIFRGYVMGWYRQAPGKERELVADISRGGSTYYADSVKGRFTISRDNAKNTVYLQMNSQKPEDTAVYYCAKDYYACYWEMDYWGQGTQVTVSS | low polyreactivity |
| QDQRVESGGGLVQAGGSLRLSCAASGRIFSWYAMGWYRQAPGQERELVAAIDSGGRTNYADSVKGRFTISRDNAKNTVYLQMNSLKPEDTAVYYCAKEGYWPRYWERFDYWGQGTQVTVSS | low polyreactivity |
| QVQLVESGGGLVQAGGSLRIICAASGRTFRGYAMGWYRQAPGKERELVAAITSGGSTNYADSVKGRFTISRDNAKNTVYLQMHSLKPEDTAVYYCNRDTSKYGLWRYIYDYWGQGTQVTVSS | low polyreactivity |
| QVQLVESGGGLVQAGGSLRLSCAASGPTFGGYTMGWYRQAPGKERELVAAITWSGGRTYYADSVKGRFTISRDNAKNTVYLQMNSLKPEDTAVYFCATSRSRERPLHNGPYYYWGLGTQVTVSS | high polyreactivity |
| QVQLVESGGGLVKAGGSLRLSCAASGSIYTNAMGWYRQAPGKERELVAAISWSGGRTYYADSVKGRFTISRDNAKNTVYLQINSLKPEDTAVYYCNPRGTRIASGHYYWGQGTLVTVSS | high polyreactivity |
| QVQLVESGGGLVQAGGSLRLSCAASGRTFAWYTMGWYRQAPGKESELVAAISGSGGSTYYADSVKGRFTISRDNANNTVYLQMNSLKPDDTAVYYCARRVDSYYGHTRYYYWGQGTQVTVSS | high polyreactivity |
| QVQLVESGGGLVQAGGSLRLSCAASGLIFRYNTMGWYRQAPGKERELVAAITSSGVRTYYADSVKGRFTISRDNAKNTVYLQMNSLKPEDTAVYYCAAEGKSYPWPWYFDYWGQGTQVTVSS | high polyreactivity |
| QVQLVESGGGLVQAGGSLRLSCAASGSIFRYNAMGWYRQAPGTEREVVAGITSGGDTNYADSVKGRFTISRDNAKNTVYLQMNSLKPEDTAVYYCAKRWYGGRRYDYWGQGTQVTVSS | low polyreactivity |
| QVQLVESGGGLVQAGGSLRLSCAASGRIFPRYAMGWYRQATGKERELVATISSGGSTYYADSVKGRFTISRDNAKNTVYLQMNSLKPEDTAVYYCAARKRPYTVINGMDYWGQGTQVTVSS | low polyreactivity |
| QVQLVESGGGLVQAGGSLRLSCAASGYIFVRYAMGWYRQAPGKERELVAAINSSRGRTYYADSVKGRFTISRDNAKNTVSLQMNSLKPEDTAVYYCGAYGYYRSGYRALEGYWGQGTQVTVSS | high polyreactivity |
| QVQLVESAGGLVQAGASLRLSCAASGIIFTRYAMGWYRQPPGKESELVAAITRSSGSTYYADSVKGRFTISRDNAKNTVYLQMNSLKPEDSAVYYCAADWVSRYQARPYFSAFNYWGQGTQVTVSS | high polyreactivity |
| QVQLVESGGGLVQAGGSLRLSCAASGSIFGAYAMGWYRQAPGKERELVAAISRSGSTTYYADSVKGRFTISRDNAKNTVYLQMNSLKPEDTAVYYCAARWTRFLSSSDYYYWGQGTQVTVSS | high polyreactivity |
| QVQLVESGGGLVQAGGSLRLSCAASGSIFCYYAMGWYRQAPGKERELVATITSGGSTSYADSVKGRFTISRDNAKNTVYLQMNSLKPEDTAVYYCAAARLFTTYDWGQGTQVTVSS | low polyreactivity |
| QVQLVESGGGLGQAGGSLRLSCAASGSIFYRYAMGWYRQAPGKERELVAAISSTGSTYYADSVKGRFTISRDHAKNTVYLEMNSLTPEDTAVYYGAARQGYRSYRRYDYWGQGTQVTVSS | high polyreactivity |
| QVQLVESGGGLDQAGGSLRLSCAASGISFIIYVMGWYRQAPGKERELVAAISSTGSTYYADSVKGRFTISRDNAKNTVYLQMNSQKPEDTAVYYCAKRKFTARQRYNYWGQGTQVTVSS | high polyreactivity |
| QVQLVESGGGLVQAGGSLRLSCAASGSTLGYYSMGWYRQAPGKERELVAAIRYSDGNTYYADSVKGRFTISRDNAKNTVYLQMNSLKPEDTAVYYCAADGGYYGRDYWGQVTQVTVSS | high polyreactivity |
| QVQLVESGGGLVQAGGSLRLSCAASGRIFWRYAMGWYRQAPGKERELVAAISSGGSTTYADSVKGRFTISRDNAKNTVYLQMNSLKPEDTAVYYCNARQYTRPYAFDYWGQGTQVTVSS | low polyreactivity |
| QVQLVESGGGLVQAGGSLRLSCAASGSTFPSYAMGWYRQAPGKERELVAAINSGGGTNYADSVKGRFTISRDNAKNTVYLQMNSLKPEDTAVYYCATDDPLSQINEQGMDYWGQGTQVTVSS | low polyreactivity |
| QVQLVESGGGLVQAGGSLRLSCAASGFTFAGYVLGWYRKAPGKDRELVAAISNSGGRTYADSVKGRFTISRDNAKNTVYLQMNSLKPEDTAVYYCAKKPGGFSQASRVDYDYWGQGTQVTVSS | low polyreactivity |

| Sequence | polyreactivity (PSR sort gate) |
| --- | --- |
| QVQHVESGGRLVQAGGSLRLSCAASGSTLDVYAMGWYRQAPGKERELVAAISWSVGSTYYADSVKGRFKISRDNAKNTVYLQMNRLKPEDTAVYYCAAEPYEYAYFGYDYWGQGTQVTVSS | high polyreactivity |
| QVQLQESGGGLVQAGGSLCLSCAASGTIFFDGDMGWYRQAPCKEREFVAAINPGGSAYYADSVKGRLPLAAITHTVYLQMNSLKPEDTAVYYCAAKLFDVYGYYYWGQGTHVTVSS | low polyreactivity |
| QVQLVESGGGLVQAGGSLRLSCAASGSISKYTMGWYRQAPGKERELVAAINWSGGSTYADSVKGRFTISRDNAKNTVYLQMNSLKPEATAVYYCNARAQRGYFGYRYNYWGQGTQVTVSS | high polyreactivity |
| QVQLVESGGGLVQAGGSLRLSCAASGRTFFVYAMGWYRQAPGKERELVASIRWRGSTYYADSVKGRFTISRDNAKNTVYLKMNSLKPEDTAVYYCAARYPYELGFDYWGQGTQVTVSS | low polyreactivity |
| QVQHVESGGGLVQAGGSLRLSCAASGRIFNLYAMGWYRQAPGKERELVAAIRGRGTSTYYADSVKGRFTISSDNAKNTVFLQINSLKPEDTAVYYCAREGGYGPTLQDTSRYEYCGQGTQVTVSS | low polyreactivity |
| QVQLVESGGGLVQAGCSLRLSCAASGRTIAYNAMGWYRQAPGKERELVAAISWSGGSTYYADSVKGRFTISRDNAKNTVYLQMNSMKPEDSAVYYCAKRFGQYRYPYDYWGQGNQVTVSS | high polyreactivity |
| QVQLVESGGGLVQAGGSLRLSCAASGSTFKRNVMGWYRQAPGKERELVAAISRSTTSTYYADSVKGRFTISRDNAKNTVYLQMNSLKPEDTAVYYCATPHRYRVDYWGQGTQVTVSS | high polyreactivity |
| QVQLVESGGGLVQAGGSLRLSCAASGSTFTGNAMGWYRQAPGKERELVADISSGASTNYADSVKGRFTISRDNAKNTVYLQMNSLKPEDTAVFYCAADSWDYDSRMDYWGQGTQVTVSS | low polyreactivity |
| QVQLVESGGGLVQAGGSLRLSCAASGSIFTFYTMGWYRQAPGKERELVAAINWSGSRTYYADSVKGRFTISRDNAKNTVYLQMNSLIQEDTAVYYCNVRCYYKRRYGWYSYRYGYWGQGTQVTVSS | high polyreactivity |
| QVQLVESGGGLVQAGGSLRLSCAASGSIFLKNAMGWYRQAPGKERELVAAITPGGSTYYADSVKGRFTISRDNAKNTVYFQMNSLKPEDSAVYHCAARPGGGKYRGYYYWGQGTQVTVSS | high polyreactivity |
| QVQLVESGGGLVQAGGSLRLSCAASGSTFIDYAMGWYRQAPGKERELVAAITNGGNTKYADSVKGRFTISRDNAKNTVYLLMISLNPEDTAVYYCAREPSIFTPSYDYWGQGTQVTVSS | low polyreactivity |
| QVQLVESGGGLVQAGGSLRLSCAASGSTFSGYAMGWYSQAPGKERELVAAISWSGGRTYYADSVNGRFTISRDNAKNTVYLQMNSLKPEDTAVYYCDAVRKSAYEYWGQGTQVTVSS | high polyreactivity |
| QVQLVESGGGLVQAGGSLRLSCAASGYTIYRYAMGWYRQAPGNERELVAAISSAGTTNYADSVKGRFTISRDNAKNTVYLQINSLKPEDTAVYYCNKRGRNHNSLKYGYWGQGTQVTVSS | high polyreactivity |
| QVQLVESGGGLVLAGGSLRLSGAASGRISGYNVLGWARQAAGKERELVAAISGSGGSTYYADSVKGRFTISRDNAKNTVYLQMNSLKPEDTADYYCGKATGYPYDYWGHGTQVTVSS | low polyreactivity |
| QVQLVESGGGLVQAGGSLRLSCAASGSIFVSYAMGWYRQAPGKERELVAAITRSGGSTYYADSVKGRFTISRDNAKNTVYLQMNSLKPEDTAVYYCAARSYLGAYRRYYWGQGTQVNVSS | high polyreactivity |
| QVHLVESGGGLVQEGGSLRLTSAASGITFVRNTLGWYRQAPGKERELVAAIDSGGNTYADSVKGRFTITRDNAKNTVYLQMNSLKPEDTAVYFCAVDGGEVSSYGYWGQGTQVTVSS | low polyreactivity |
| QVQLVESGGGLVQAGGSLRLSCAASGSTFVDYYMGWYRQATGKERELVAAITYSGARTYYADSVKGRFTISRDNAKNTVYLQMNSLKPEDTAVYYCNADQSTASDQLEFDYWGQGTQVTVSS | low polyreactivity |
| QVQLVESGGGLVQAGGSLRLSCAASGSIFYSYAMGWYRQAPGKERELVAAISRSGVSTYYADSVKGRFTISRDNAKNTVYLQMNSLKPEDTAVYYCASPYFVSYQGYDYWGQGTQVTVSS | high polyreactivity |
| QVQLVESGGGLVQAGGSLRLSCAASGSTYHYAMGWYRQAPGKERELVASITWRGDTTYYADSVKGRFTISRDNAKNTVYLQMNSLKPEDTAVYYCAARKFFRQGGKRYDYWGQGTQVTVSS | high polyreactivity |
| QVQLVESGGGLVQAGGSLRLSCAASGFTFSLYTKGWYRQATGKERELVADISDGGITNYADSVKGRFTISRDNAKNTVYLQMHSLKPEDTAVYYCAADYQFLFFWNLFYEDYDYWGQGTQVTVSS | high polyreactivity |
| QVQLVESGGGLVQAGGSLRLSCAASGRTFYVNTMGWYRQAPGKERELVASITWSDGSTYYADSVKGRFTISRDNAKNTVYLQMNSLKPDDSAVYYCAASGRFIVNAYRSWGRRRYEYWGQGTQVTVSS | high polyreactivity |
